The values that follow come from publication PMC10696041.

This assay has as its target C-propeptide of collagen III. In words: SPR; C-propeptide III immobilised by amine coupling on CM5; 10 mM HEPES pH 7.4, 0.15 M NaCl, 5 mM CaCl2, 0.05% P20, 25 °C. (In general: In SPR one partner is held on a chip, and binding of the other changes the refractive index at the surface.)

B1: procollagen C-proteinase enhancer-2 with N-terminal 6His-tag (natural protein)
chain: QSPERPVFTCGGILTGESGFIGSEGFPGVYPPNSKCTWKITVPEGKVVVLNFRFIDLESDNLCRYDFVDVYNGHANGQRIGRFCGTFRPGALVSSGNKMMVQMISDANTAGNGFMAMFSAAEPNERGDQYCGGLLDRPSGSFKTPNWPDRDYPAGVTCVWHIVAPKNQLIELKFEKFDVERDNYCRYDYVAVFNGGEVNDARRIGKYCGDSPPAPIVSERNELLIQFLSDLSLTADGFIGHYIFRPKKLPTTTEQPVTTTFPVTTGLKPTVALCQQKCRRTGTLEGNYCSSDFVLAGTVITTITRDGSLHATVSIINIYKEGNLAIQQAGKNMSARLTVVCKQCPLLRRGLNYIIMGQVGEDGRGKIMPNSFIMMFKTKNQKLLDALKNKQC
As usually defined, the Kd is the concentration at which binding is half-saturated. A higher Kd goes with lower affinity. Regarding B1, the Kd came to 45 nM.
